According to paper PMC6753162, “The interactome of 2-Cys peroxiredoxins in Plasmodium falciparum” (Scientific Reports, 2019):

Assays:
[1] = molecular target: the molecule itself; assay: not stated; 6xHis-tagged Prx reduced with DTT, in purification buffer and in coupling buffer; method not given
[2] = molecular target: T1, recombinant PfSAHH wt (P. falciparum, UniProt P50250 1-479); assay: pull-down; 2 mg reduced PfPrx1a wt on CNBr-activated Sepharose 4B; 8 mg purified recombinant PfLDH wt or PfSAHH wt (not pre-reduced); extensive washing; eluted with 10 mM DTT; silver-stained 12% SDS-PAGE; conditions: both partners purified
T1 construct: S-adenosyl-L-homocysteine hydrolase, Plasmodium falciparum, wild type; not pre-reduced in the assay; also called S-adenosyl-L-homocysteine hydrolase; source: recombinant, purified (produced as previously described)
T1 sequence (P50250 whole entry): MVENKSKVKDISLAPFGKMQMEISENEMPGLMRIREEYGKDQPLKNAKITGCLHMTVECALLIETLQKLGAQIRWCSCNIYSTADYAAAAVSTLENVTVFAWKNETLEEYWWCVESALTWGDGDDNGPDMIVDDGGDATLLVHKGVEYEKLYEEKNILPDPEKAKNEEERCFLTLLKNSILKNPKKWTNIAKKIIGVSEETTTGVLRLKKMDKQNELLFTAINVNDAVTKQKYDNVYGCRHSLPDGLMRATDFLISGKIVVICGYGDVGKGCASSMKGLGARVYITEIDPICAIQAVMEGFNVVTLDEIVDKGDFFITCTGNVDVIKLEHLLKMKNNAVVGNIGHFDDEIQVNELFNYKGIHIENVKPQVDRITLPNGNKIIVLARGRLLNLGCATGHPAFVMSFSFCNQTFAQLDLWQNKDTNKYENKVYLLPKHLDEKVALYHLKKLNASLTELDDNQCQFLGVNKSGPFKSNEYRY

Binder | stoichiometry N [1] | binding result [2]
PfPrx1a wild type (enzyme, P. falciparum, UniProt Q8IL80 1-195, looked up, PfPrx1a (thioredoxin peroxidase 1), Plasmodium falciparum; peroxidatic C50, resolving C170, further C74; also called PfPrx1a wt; thioredoxin peroxidase 1; source: E. coli M15 (pQE30), purified (Ni-NTA); not shown: His6, N-terminal, kept; copies: 10) MASYVGREAPYFKAEAVFADNTFGEVNLHDFIGKKYVLLYFYPLDFTFVCPSEIIALDKALDAFKERNVELIGCSVDSKYTHLAWKKTPLTKGGIGNIQHTLISDITKSISRSYNVLFGDSVSLRAFVLIDKQGVVQHLLVNNLAIGRSVEEVLRIIDAVQHHEQHGDVCPANWKKGKVAMKPSEEGVSEYLSKL | 10 | binds
PfPrx1m wild type (enzyme, P. falciparum, PfPrx1m (thioredoxin peroxidase 2), Plasmodium falciparum, mitochondrial; peroxidatic C67, resolving C187, further C54, C55, C152; also called PfPrx1m wt; thioredoxin peroxidase 2; source: E. coli M15 (pQE30), purified (Ni-NTA); not shown: His6, N-terminal, kept; copies: 10) SLVTKKAYNFTAQGLNKNNEIINVDLSSFIGQKYCCLLFYPLNYTFVCPTEIIEFNKHIKDFENKNVELLGISVDSVYSHLAWKNMPIEKGGIGNVEFTLVSDINKDISKNYNVLYDNSFALRGLFIIDKNGCVRHQTVNDLPIGRNVQEVLRTIDSIIHVDTSGEVCPINWKKGQKAFKPTTESLIDYMNNANKNV | 10 | 
